This data set concerns the target DTX3L RD (RING-DTC) (Homo sapiens, UniProt Q8TDB6 544-740). As to the kind of experiment: EMSA; 5 mM Mg2+; protein 0.5, 1, 2 uM; RNA 0.5 uM; EMSA: 20 mM HEPES pH 7.5, 50 mM KCl, 5 mM MgCl2, 1 mM DTT, on ice 0.5 h, 6% native PAGE. Conditions: protein: recombinant; label: 3' Cy3; single strand.

Chain of DTX3L RD (RING-DTC) (Q8TDB6 544-740): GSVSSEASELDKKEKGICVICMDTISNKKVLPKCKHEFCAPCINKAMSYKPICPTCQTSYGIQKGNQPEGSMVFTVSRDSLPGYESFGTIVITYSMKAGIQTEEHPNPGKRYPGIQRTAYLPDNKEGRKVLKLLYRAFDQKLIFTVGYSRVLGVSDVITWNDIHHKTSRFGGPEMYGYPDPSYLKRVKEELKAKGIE

B1: E35_5'P_RNA_3Cy3 (ssRNA)
RNA: GUGGCGCGGAGACUUAGAGAAAUUGUGAUCAGGAA
modifications: 5' phosphate
B1: the binding result is reported as “no binding”.

The values above are taken from article PMC10810221, “DELTEX E3 ligases ubiquitylate ADP-ribosyl modification on nucleic acids”.
